In patent JP2013230152A:

Columns and labels:
遺伝子型3aの単離物のE1E2 = assay: cell-based or functional assay
[1] = target: 遺伝子型5の単離物のE1E2(MAb AP33反応性); assay: cell-based or functional assay
[2] = target: H77 E1E2突然変異型G418A (Hepatitis C virus genotype 1a, strain H77) (UniProt P27958); assay: GNA capture EIA, mutant E1E2 from HEK293T cells
[3] = target: H77 E1E2突然変異型L413A (Hepatitis C virus genotype 1a, strain H77) (UniProt P27958); assay: GNA capture EIA, mutant E1E2 from HEK293T cells
[4] = target: H77 E1E2突然変異型N415A (Hepatitis C virus genotype 1a, strain H77) (UniProt P27958); assay: GNA capture EIA, mutant E1E2 from HEK293T cells
[5] = target: H77 E1E2突然変異型Q412A (Hepatitis C virus genotype 1a, strain H77) (UniProt P27958); assay: GNA capture EIA, mutant E1E2 from HEK293T cells
[6] = target: H77 E1E2突然変異型W420A (Hepatitis C virus genotype 1a, strain H77) (UniProt P27958); assay: GNA capture EIA, mutant E1E2 from HEK293T cells
[7] = target: 412〜423分枝ペプチド (Hepatitis C virus); assay: antibody titration on the 412-423 branched peptide (Figure 10)

モノクローナル抗体AP33 (antibody) showed a IC 50(HCV pp 中和) (遺伝子型3aの単離物のE1E2) of 22 µg/mL, a IC 50(HCV pp 中和) [1] of 0.6 µg/mL and a decrease of binding compared with wild type [2] of over 75%. It also gave a decrease of binding compared with wild type [3] of over 75%, a decrease of binding compared with wild type [4] of over 75% and an increase of binding compared with wild type H77 [5] of 50%. For the same substance, the decrease of binding compared with wild type [6] was over 75% and the concentration for 50% binding, how much lower than that of MAb 3/11 [7] was over 10.
